A word on the koff: it is a measure of how fast the partners let go of each other. A higher koff goes with a short-lived complex. In general, kon refers to the second-order rate constant of association. The Kd is the equilibrium constant for the complex coming apart. A lower Kd goes with a tighter complex.

The target in experiment [1] is T1, PD1 aglycosylated at Asn58 (human PD1-ECD) (human, UniProt Q15116 25-170, not glycosylated at Asn58 (position on SEQ ID NO: 70)).
T1 construct: also called aglycosylated PD-1; non-glycosylated recombinant human PD1
T1 sequence (Q15116 25-170 limits assumed): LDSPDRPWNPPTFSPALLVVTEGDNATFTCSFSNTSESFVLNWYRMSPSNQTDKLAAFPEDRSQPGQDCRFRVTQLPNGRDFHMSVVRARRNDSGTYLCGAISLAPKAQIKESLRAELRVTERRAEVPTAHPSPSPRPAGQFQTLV
Description: SPR (Biacore T200, 25 °C), antibody captured by anti-human IgG, PD1-ECD as analyte, 1:1 Langmuir fit. The source says:
(§1) A surface plasmon resonance (SPR) based assay has been used to determine the kinetic parameters of the binding between […]. Therefore, an anti-human IgG was immobilized by amine coupling to the surface of a (Biacore) CM5 sensor chip. The samples were then captured and hu PD1-ECD was bound to them. The sensor chip surface was regenerated after each analysis cycle. The equilibrium constant and kinetic rate constants were finally gained by fitting the data to a 1:1 langmuir interaction model.
(§2) The samples were injected for 20 seconds with a concentration of 10 nM and bound to the second flow cell.
(§3) Finally the double referenced data was fitted to a 1:1 langmuir interaction model with the Biacore T200 Evaluation Software.
Background: SPR reads the build-up and loss of mass on a sensor chip optically.

The target of experiment [2] is T2, PD1 glycosylated at Asn58 (human PD1-ECD) (human, UniProt Q15116 25-170, N-glycosylated at Asn58 (position on SEQ ID NO: 70)).
T2 construct: also called glycosylated PD-1; glycosylated recombinant PD1
T2 sequence (Q15116 25-170 limits assumed): as above
The experiment is described as above.
Description: as §1, §2, §3

For experiment [3], the target named is T1, PD1 aglycosylated at Asn58 (human …). The experiment can be described thus: SPR (Biacore T200, 25 °C), antibody captured by anti-human IgG, PD1-ECD as analyte, 1:1 Langmuir fit; PD1 aglycosylated at Asn58.
Description: as §1, §2, §3

In experiment [4] the target is T2, PD1 glycosylated at Asn58 (human …). The experiment can be described thus: SPR (Biacore T200, 25 °C), antibody captured by anti-human IgG, PD1-ECD as analyte, 1:1 Langmuir fit; PD1 glycosylated at Asn58.
Description: as §1, §2, §3

B1: PD1-0103-0312 (antibody, V domains shown)
VH: EVQLLESGGGLVQPGGSLRLSCAASGFSFSSYTMSWVRQAPGKGLEWVATISGGGRDIYYPDSVKGRFTISRDNSKNTLYLQMNSLRAEDTAVYYCVLLTGRVYFALDSWGQGTLVTVSS
VL: DIVMTQSPDSLAVSLGERATINCKASESVDTSDNSFIHWYQQKPGQSPKLLIYRSSTLESGVPDRFSGSGSGTDFTLTISSLQAEDVAVYYCQQNYDVPWTFGQGTKVEIK
As to B1, the results for the koff in experiment [1] and in experiment [2] were 0.027 s⁻¹ and 7.46e-05 s⁻¹, respectively. The kon came to 336000 M⁻¹ s⁻¹ in experiment [1] and 777000 M⁻¹ s⁻¹ in experiment [2]. Moreover, the Kd is 80.2 nM in experiment [3] and 0.0961 nM in experiment [4].
